Measurements taken from the Immune Epitope Database (IEDB).

Columns and labels:
[1] = biological target: HLA-C*04:01; experiment: IEDB peptide-MHC binding, purified MHC/competitive/fluorescence; filed as Kd, often an IC50 or EC50 that approximates it; ≥ and ≤ were set here for values at or beyond the usual limits of such assays; settings: source organism: Mycobacterium tuberculosis variant bovis BCG str. Pasteur 1173P2
[2] = biological target: HLA-B*83:01; experiment: as above
[3] = biological target: HLA-B*15:42; experiment: as above
[4] = biological target: HLA-B*45:06; experiment: as above
[5] = biological target: HLA-A*02:01; experiment: as above; settings: source organism: Mycobacterium tuberculosis variant bovis BCG str. Pasteur 1173P2
[6] = biological target: HLA-A*02:11; experiment: as above; settings: source organism: Mycobacterium tuberculosis variant bovis BCG str. Pasteur 1173P2
[7] = biological target: HLA-B*27:20; experiment: as above
[8] = biological target: HLA-B*35:01; experiment: IEDB peptide-MHC binding, purified MHC/competitive/radioactivity; filed as Kd, often an IC50 or EC50 that approximates it; ≥ and ≤ were set here for values at or beyond the usual limits of such assays; settings: source organism: Dengue virus 4 Philippines/H241/1956
[9] = biological target: HLA-B*53:01; experiment: as above; settings: source organism: Dengue virus 4 Philippines/H241/1956
[10] = biological target: HLA-B*07:02; experiment: IEDB peptide-MHC binding, purified MHC/competitive/radioactivity; ≥ and ≤ were set here for values at or beyond the usual limits of such assays; settings: source organism: dengue virus type 4
[11] = biological target: HLA-A*03:01; experiment: IEDB peptide-MHC binding, purified MHC/direct/fluorescence; filed as Kd, often an IC50 or EC50 that approximates it; ≥ and ≤ were set here for values at or beyond the usual limits of such assays
[12] = biological target: HLA-C*06:02; experiment: as above; settings: source organism: Vibrio cholerae 2740-80
[13] = biological target: HLA-B*08:01; experiment: as above
[14] = biological target: HLA-B*44:02; experiment: as above; settings: source organism: Vibrio cholerae
[15] = biological target: HLA-A*26:01; experiment: as above; settings: source organism: Vibrio cholerae
[16] = biological target: HLA-C*12:03; experiment: as above; settings: source organism: Vibrio cholerae 2740-80
[17] = biological target: HLA-B*27:05; experiment: as above
[18] = biological target: HLA-B*35:01; experiment: as above; settings: source organism: Vibrio cholerae
[19] = biological target: HLA-A*11:01; experiment: as above
[20] = biological target: HLA-B*58:01; experiment: as above
[21] = biological target: HLA-A*31:01; experiment: as above; settings: source organism: Vibrio cholerae
[22] = biological target: HLA-A*69:01; experiment: as above
[23] = biological target: HLA-A*02:01; experiment: as above
[24] = biological target: HLA-B*15:01; experiment: as above
[25] = biological target: HLA-B*07:02; experiment: as above
[26] = biological target: HLA-B*40:01; experiment: as above
[27] = biological target: HLA-A*01:01; experiment: as above
[28] = biological target: HLA-A*02:50; experiment: IEDB peptide-MHC binding, purified MHC/competitive/fluorescence; filed as Kd, often an IC50 or EC50 that approximates it; ≥ and ≤ were set here for values at or beyond the usual limits of such assays; settings: source organism: Vibrio cholerae 2740-80
[29] = biological target: HLA-B*46:01; experiment: as above; settings: source organism: Vibrio cholerae 2740-80
[30] = biological target: HLA-B*39:01; experiment: IEDB peptide-MHC binding, purified MHC/direct/fluorescence; filed as Kd, often an IC50 or EC50 that approximates it; ≥ and ≤ were set here for values at or beyond the usual limits of such assays; settings: source organism: Yersinia pestis CA88-4125
[31] = biological target: HLA-B*46:01; experiment: as above; settings: source organism: Yersinia pestis
[32] = biological target: HLA-B*18:01; experiment: as above; settings: source organism: Yersinia pestis
[33] = biological target: HLA-B*57:01; experiment: as above; settings: source organism: Yersinia pestis
[34] = biological target: HLA-B*51:01; experiment: as above; settings: source organism: Yersinia pestis
[35] = biological target: HLA-B*15:17; experiment: as above; settings: source organism: Yersinia pestis
[36] = biological target: HLA-B*38:01; experiment: as above; settings: source organism: Yersinia pestis CA88-4125
[37] = biological target: HLA-B*48:01; experiment: as above
[38] = biological target: HLA-B*15:09; experiment: as above; settings: source organism: Yersinia pestis CA88-4125
[39] = biological target: HLA-A*31:01; experiment: IEDB peptide-MHC binding, purified MHC/competitive/fluorescence; filed as Kd, often an IC50 or EC50 that approximates it; ≥ and ≤ were set here for values at or beyond the usual limits of such assays; settings: source organism: Yersinia pestis KIM10+
[40] = biological target: HLA-B*73:01; experiment: as above; settings: source organism: Burkholderia mallei SAVP1
[41] = biological target: HLA-C*07:02; experiment: IEDB peptide-MHC binding, purified MHC/direct/fluorescence; filed as Kd, often an IC50 or EC50 that approximates it; ≥ and ≤ were set here for values at or beyond the usual limits of such assays; settings: source organism: Yellow fever virus
[42] = biological target: HLA-C*06:02; experiment: IEDB peptide-MHC binding, purified MHC/competitive/fluorescence; filed as Kd, often an IC50 or EC50 that approximates it; ≥ and ≤ were set here for values at or beyond the usual limits of such assays; settings: source organism: Yellow fever virus
[43] = biological target: HLA-B*35:01; experiment: IEDB peptide-MHC binding, purified MHC/competitive/radioactivity; ≥ and ≤ were set here for values at or beyond the usual limits of such assays; settings: source organism: Human papillomavirus 16
[44] = biological target: HLA-B*40:02; experiment: IEDB peptide-MHC binding, cellular MHC/competitive/fluorescence; ≥ and ≤ were set here for values at or beyond the usual limits of such assays; settings: source organism: Homo sapiens
[45] = source organism: Mycobacterium tuberculosis variant bovis BCG str. Pasteur 1173P2
[46] = source organism: Vibrio cholerae
[47] = source organism: Yersinia pestis
[48] = source organism: Yersinia pestis CA88-4125
[49] = source organism: Yellow fever virus

Q: For AEFGPWQTV, which Kd [1] is on record?
A: ≥ 5 µM

Q: What about the Kd [2, 45] of the same sequence?
A: ≥ 5 µM

Q: And the Kd [3, 45]?
A: ≥ 5 µM

Q: And the Kd [4, 45]?
A: ≥ 5 µM

Q: And the Kd [5]?
A: 1.64 µM

Q: And the Kd [6]?
A: 0.125 µM

Q: And the Kd [7, 45]?
A: 0.185 µM

Q: How did the Kd [8] turn out when LPSIVREAL was run?
A: 0.0828 µM

Q: What about the Kd [9] of the same sequence?
A: 0.0406 µM

Q: What about the IC50 [10] of the same sequence?
A: 0.00031 µM

Q: How did the Kd [11, 46] turn out when MMFDAMGAL was run?
A: 1.46 µM

Q: What about the Kd [12] of the same sequence?
A: 1.48 µM

Q: And the Kd [13, 46]?
A: 5.76 µM

Q: And the Kd [14]?
A: ≥ 20 µM

Q: What about the Kd [15] of the same sequence?
A: 1.23 µM

Q: What about the Kd [16] of the same sequence?
A: 0.046 µM

Q: What about the Kd [17, 46] of the same sequence?
A: ≥ 20 µM

Q: And the Kd [18]?
A: 0.0185 µM

Q: And the Kd [19, 46]?
A: 9.31 µM

Q: And the Kd [20, 46]?
A: ≥ 20 µM

Q: And the Kd [21]?
A: 0.921 µM

Q: What about the Kd [22, 46] of the same sequence?
A: 0.0331 µM

Q: What about the Kd [23, 46] of the same sequence?
A: 0.328 µM

Q: And the Kd [24, 46]?
A: 0.0372 µM

Q: And the Kd [25, 46]?
A: 5.75 µM

Q: And the Kd [26, 46]?
A: ≥ 20 µM

Q: And the Kd [27, 46]?
A: 11.2 µM

Q: And the Kd [28]?
A: 0.0002 µM

Q: What about the Kd [29] of the same sequence?
A: 0.0227 µM

Q: Which Kd [30] does the source give for RPQLWRYRW here?
A: 3.18 µM

Q: What about the Kd [11, 47] of the same sequence?
A: ≥ 20 µM

Q: What about the Kd [31] of the same sequence?
A: ≥ 20 µM

Q: What about the Kd [32] of the same sequence?
A: ≥ 20 µM

Q: What about the Kd [33] of the same sequence?
A: 0.343 µM

Q: What about the Kd [13, 48] of the same sequence?
A: ≥ 20 µM

Q: And the Kd [34]?
A: ≥ 20 µM

Q: What about the Kd [35] of the same sequence?
A: ≥ 20 µM

Q: What about the Kd [36] of the same sequence?
A: ≥ 20 µM

Q: What about the Kd [17, 47] of the same sequence?
A: ≥ 20 µM

Q: And the Kd [19, 47]?
A: ≥ 20 µM

Q: What about the Kd [37, 47] of the same sequence?
A: ≥ 20 µM

Q: And the Kd [20, 48]?
A: 0.328 µM

Q: What about the Kd [22, 47] of the same sequence?
A: ≥ 20 µM

Q: And the Kd [23, 47]?
A: ≥ 20 µM

Q: What about the Kd [24, 47] of the same sequence?
A: ≥ 20 µM

Q: And the Kd [25, 47]?
A: 0.97 µM

Q: What about the Kd [26, 47] of the same sequence?
A: ≥ 20 µM

Q: And the Kd [38]?
A: ≥ 20 µM

Q: What about the Kd [27, 47] of the same sequence?
A: ≥ 20 µM

Q: What about the Kd [39] of the same sequence?
A: 1.81 µM

Q: Which Kd [40] does the source give for RRFWVGYQQ here?
A: 0.893 µM

Q: RRRLRTLVL was tested. Which Kd [41] did it give?
A: 0.225 µM

Q: What about the Kd ([37]; source organism: Yellow fever virus 17D) of the same sequence?
A: 2.93 µM

Q: And the Kd [42]?
A: 0.0505 µM

Q: What about the Kd [2, 49] of the same sequence?
A: ≥ 5 µM

Q: And the Kd [3, 49]?
A: ≥ 5 µM

Q: And the Kd [4, 49]?
A: ≥ 5 µM

Q: What about the Kd [7, 49] of the same sequence?
A: 0.0002 µM

Q: Which IC50 [43] does the source give for SAFRCFIVY here?
A: 0.0014 µM

Q: With SELSPGRSV as the sequence, how does the IC50 [44] read?
A: 1.1 µM
